Results reported in PMC6160459, “Identification of Peptide Mimotope Ligands for Natalizumab” (Scientific Reports, 2018).
Where two headings read alike, the source gives them in different places.

Columns and labels:
[1] = tested on: CD49d+ JeKo-1 cells; assay: CD49d+ cell based binding assay of heat exposed natalizumab (flow cytometry); settings: 60 °C for 30 m, 1 h or 2 h; both GSH and non-GSH treated samples
Method: Natalizumab-spiked samples in serum were diluted 25-fold in 5% FBS/DPBS/0.05% NaN3. CD49d+ JeKo-1 cells were suspended in 5% FBS/DPBS/0.05% NaN3, and 25 µl of suspension (10^5 cells) were added to 25 µl of diluted sample and incubated for 20 m on ice. Washes, secondary incubation, collection, and analysis proceeded as in the CD49d+ Cell Based Peptide Competition Assay protocol.
(§1) Natalizumab was spiked into neat serum. The samples were split in half and 100 mM Glutathione reduced (GSH, Sigma-Aldrich, St. Louis MO) in H2O was added to one set to produce a final concentration of 3 mM GSH. Samples were then incubated overnight at 37 °C to induce arm exchange of IgG4 molecules. For ELISA assays, samples were subsequently diluted 250-fold in 2.5% BSA/TBST to produce a final serum concentration of 0.4%.
(§2) Samples containing GSH treated or non-GSH treated natalizumab in serum were heated at 60 °C for 30 m, 1 h, or 2 h. Control samples were held at 4 °C. For ELISA assays, samples were subsequently diluted 250-fold in 2.5% BSA/TBST to produce a final serum concentration of 0.4%.

[2] = standard dosing, 300 mg by IV infusion every 4 weeks; cited from earlier work
Method: The standard dosing regimen for natalizumab is 300 mg by IV infusion every 4 weeks. […] It has been postulated that high serum concentrations may increase the risk of PML[10],[11]. […] Conversely, low drug concentrations have been associated with a lack of natalizumab efficacy. Multiple enzyme-linked immunosorbent assays (ELISAs) to detect levels of circulating natal ...

[3] = Ntz-01 peptide ELISA of heat exposed natalizumab samples; type: binding; settings: 60 °C for 30 m, 1 h or 2 h; particularly for the GSH treated samples; 0.4% serum
Method: Wells of a NeutrAvidin-coated 96-well plate or 8-well strips (Thermo Fisher) were coated with 100 µl of biotinylated peptide at 7.5 µg/ml in molecular grade H2O (GE Healthcare Life Sciences, Logan, UT) for 1 h. Wells were washed five times with TBST. Wells were then blocked with 200 µl of 5% normal goat serum diluted from 10% normal goat serum (Thermo Fisher) in TBS for 1 h. Wells were washed five times with TBST. Antibody was spiked into 2.5% BSA in TBST (2.5% BSA/TBST) or into pooled defibrinated human AB serum (serum; Gemini, Woodland CA) diluted in 2.5% BSA/TBST. The final dilution of serum was 0.4% unless otherwise noted. Wells were incubated with 100 µl of antibody-spiked samples for 1 h and then washed five times with TBST. Bound natalizumab was detected with mouse anti-human IgG4 horse radish peroxidase (anti-IgG4-HRP; Abcam, Cambridge, MA) diluted 1:2000-1:5000 in TBST. Wells were incubated with 100 µl of diluted anti-IgG4-HRP for 30 m and then washed nine times with TBST. Turbo TMB substrate (Thermo Fisher) was added to the wells and allowed to develop for 12–15 m shielded from light. The reaction was stopped with 1 M H2SO4 (Thermo Fisher). Optical density (OD) was read at 450 nm on a Multiskan FC plate reader (Thermo Fisher) and data were analyzed with GraphPad Prism v5 or v7 software (Graphpad Software Inc, La Jolla CA).
Natalizumab was spiked into neat serum. […]

[4] = tested on: MS patients; settings: AFFIRM study; cited from earlier work
Source text: Multiple sclerosis (MS) is a leading cause of neurologic disability that affects approximately 400,000 people in the US and 2.5 million worldwide. Natalizumab (marketed as Tysabri) is the top selling biologic drug indicated for MS and has been used to treat 177,800 patients worldwide as of November 2017[2]. […] Natalizumab is a humanized recombinant IgG4 mAb that targets the α4 chain of α4β1 integrin (also known as very late a ...

[5] = tested on: MS patients; settings: cited from earlier work
Source text: The immunosuppressive activity of natalizumab has been associated with opportunistic infection by John Cunningham (JC) virus which may lead to progressive multifocal leukoencephalopathy (PML), a serious and often-fatal opportunistic brain infection. Approximately 56–58% of MS patients are positive for anti-JC virus antibodies, which puts them at increased risk for developing PML while on natalizumab[5]–[7]. The estimated incidence of PML in patients positive for anti-JC virus antibodies is 3.87 per 1,000 patients after at least 1 month of natalizumab treatment. It increases to 11.1 per 1,000 p ... || The standard dosing regimen for natalizumab is 300 mg by IV infusion every 4 weeks. […] It has been postulated that high serum concentrations may increase the risk of PML[10],[11]. […] Conversely, low drug concentrations have been associated with a lack of natalizumab efficacy. Multiple enzyme-linked immunosorbent assays (ELISAs) to detect levels of circulating natal ...

[6] = tested on: natalizumab neutralizing anti-Idiotype (anti-Id) Fab fragment; assay: Anti-Id ELISA of heat exposed natalizumab samples; type: binding; settings: 60 °C for 30 m, 1 h or 2 h; GSH or non-GSH treated samples; 0.4% serum
Method: Wells of a Costar 96-well high binding plate were coated with 100 µl of natalizumab neutralizing anti-Idiotype (anti-Id) Fab fragment (Bio-Rad, Hercules CA) in phosphate-buffered saline (PBS; Corning Life Sciences) at 1 µg/ml overnight at 4 °C. The remining protocol proceeded as in peptide ELISA Protocol-1, with the following exceptions. 1) PBS/PBST was used in place of TBS/TBST (except for washes), 2) goat anti-human IgG HRP (Jackson Immunoresearch, West Grove PA) diluted 1:5000 was used as the secondary conjugate, and 3) TMB substrate was allowed to develop for 8–10 m.
as §1, §2

B1: natalizumab: humanized recombinant IgG4 mAb that targets the α4 chain of α4β1 integrin and a4β7 integrin (antibody, V domains shown)
VH: QVQLVQSGAEVKKPGASVKVSCKASGFNIKDTYIHWVRQAPGQRLEWMGRIDPANGYTKYDPKFQGRVTITADTSASTAYMELSSLRSEDTAVYYCAREGYYGNYGVYAMDYWGQGTLVTVSS
VL: DIQMTQSPSSLSASVGDRVTITCKTSQDINKYMAWYQQTPGKAPRLLIHYTSALQPGIPSRFSGSGSGRDYTFTISSLQPEDIATYYCLQYDNLWTFGQGTKVEIK
- functional cell binding with increased heat exposure [1]: Decreased cell binding
- variation of serum natalizumab concentrations [2]: over 100 fold
- binding with increased heat exposure by Ntz-01 peptide ELISA [3]: Decreased binding
- reduction of sustained physical disability relative to placebo [4]: 42%
- estimated incidence of PML ([5]; JC virus antibody positive patients with prior use of immunosuppressants and long-term use of natalizumab (24–48 months)): 11.1 per 1,000 patients
- decrease of PML risk ([5]; extended interval dosing (infusion every 5–12 weeks instead of every 4 weeks)): 94%
- estimated incidence of PML ([5]; patients positive for anti-JC virus antibodies, after at least 1 month of natalizumab treatment): 3.87 per 1,000 patients
- changes in binding with heat exposure by anti-Id ELISA [6]: Changes in binding with heat exposure were not observed
